Results reported in PMC9519043.

Assays:
[1] = system: HCoV 229E virus particle (Human coronavirus 229E (ATCC VR-740)); test: microfluidic affinity capture, RT-qPCR; settings: 5' amino C12 linker and TEG spacer 9, 3' inverted dT, SPR (BIAcore T200, […], pH not stated
[2] = system: HCoV OC43 virus particle (Betacoronavirus 1 HCoV OC43 (ATCC VR-1558)); test: microfluidic affinity capture, RT-qPCR; settings: 5' amino C12 linker and TEG spacer 9, 3' inverted dT, SPR (BIAcore T200, […], pH not stated

Sequence “CAGCACCGACCTTGTGCTTTGGGAGTGCTGGTCCAAGGGCGTTAATGGACA [51-nt SARS-CoV-2 aptamer, chip form]” has a binding signal [1] of 0.7 % recovery and a binding signal [2] of 3.5 % recovery.
